From patent publication US7514207B2, “Methods of screening for compounds that decrease phosphorylation of merlin and may be useful in cancer treatment” (Massachusetts Institute of Technology, priority 2001, dated 2009)

Legend:
merlin kinase = experiment: In-vitro merlin kinase assay with kinase inhibitors; assay type: biochemical; conditions: for concentration range inhibiting the merlin kinase: inhibition of the activity of the merlin kinase
[1] = target: T1, GST-merlin pseudo-substrate (residues 478-535 of merlin fused to glutathione-S-transferase), P35240
T1 chain: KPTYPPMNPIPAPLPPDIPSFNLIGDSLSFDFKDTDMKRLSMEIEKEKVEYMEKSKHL

[2] = test system: phosphorylation of merlin induced by activated Rac or cdc42; experiment: In-vivo merlin phosphorylation in co-transfected NIH3T3 cells (western blot); assay type: cell-based; conditions: NIH3T3 cells co-transfected with merlin, activated Rac or cdc42 and the PAK2 AID
Procedure: In the in-vitro kinase assays where full-length merlin was used, cells transfected with merlin expression vectors were extracted, and merlin was immunoprecipitated using a commercially available antibody SC-331 (Santa Cruz) and Protein A-agarose beads. In the in-vivo studies, cells were transfected with various expression vectors and harvested after 48 hours into SDS-boiling buffer (10 mM Tris pH 7.5, 50 mM NaF, and 1% SDS). Cells were scraped off the plates and boiled for 5′. Protein concentration was determined by the BCA method (Pierce) and resolved by 9% SDS-PAGE and western blot analysis.
The inhibitory fragment in PAK2 resides between residues 82-146 (equivalent to the 83-149 AID of PAK1). […] To further investigate the role of PAK2 in induction of merlin phosphorylation, the ability of the AID to inhibit this activity was assessed. NIH3T3 cells were co-transfected with expression vectors for merlin, activated Rac, or cdc42 and the PAK2 AID.

[3] = target: merlin expressed from an inducible allele in the RT4-D6P2T cell line

Molecule: CCCCCCOC(=O)[C@]1(O)C[C@@H]2O[C@@]1(C)n1c3ccccc3c3c4c(c5c6ccccc6n2c5c31)C(=O)NC4 [K-5720]
- concentration range inhibiting the merlin kinase (merlin kinase): mM range

Molecule: COC(=O)[C@@]1(O)C[C@H]2O[C@]1(C)n1c3ccccc3c3c4c(c5c6ccccc6n2c5c31)C(=O)NC4 [K252a]
- concentration range inhibiting the merlin kinase (merlin kinase): mM range

Molecule: NCCNS(=O)(=O)c1cccc2cnccc12 [H9]
- concentration up to which no effect on the merlin kinase was seen (merlin kinase; no effect up to this concentration): > 1 mM

B1: PAK1 (transfected) (protein)
chain: MSNNGLDIQDKPPAPPMRNTSTMIGAGSKDAGTLNHGSKPLPPNPEEKKKKDRFYRSILPGDKTNKKKEKERPEISLPSDFEHTIHVGFDAVTGEFTGMPEQWARLLQTSNITKSEQKKNPQAVLDVLEFYNSKKTSNSQKYMSFTDKSAEDYNSSNALNVKAVSETPAVPPVSEDEDDDDDDATPPPVIAPRPEHTKSVYTRSVIEPLPVTPTRDVATSPISPTENNTTPPDALTRNTEKQKKKPKMSDEEILEKLRSIVSVGDPKKKYTRFEKIGQGASGTVYTAMDVATGQEVAIKQMNLQQQPKKELIINEILVMRENKNPNIVNYLDSYLVGDELWVVMEYLAGGSLTDVVTETCMDEGQIAAVCRECLQALEFLHSNQVIHRDIKSDNILLGMDGSVKLTDFGFCAQITPEQSKRSTMVGTPYWMAPEVVTRKAYGPKVDIWSLGIMAIEMIEGEPPYLNENPLRALYLIATNGTPELQNPEKLSAIFRDFLNRCLEMDVEKRGSAKELLQHQFLKIAKPLSSLTPLIAAAKEATKNNH
- phosphorylation of the pseudo-substrate in an in-vitro kinase assay [1]: Other kinases, which are known effectors of cdc42/Rac, including PAK1, LIM-kinase and JNK, did not induce phosphorylation of merlin in these assays

B2: PAK3 (transfected) (protein)
chain: MSDGLDNEEKPPAPPLRMNSNNRDSSALNHSSKPLPMAPEEKNKKARLRSIFPGGGDKTNKKKEKERPEISLPSDFEHTIHVGFDAVTGEFTGIPEQWARLLQTSNITKLEQKKNPQAVLDVLKFYDSKETVNNQKYMSFTSGDKSAHGYIAAHPSSTKTASEPPLAPPVSEEEDEEEEEEEDENEPPPVIAPRPEHTKSIYTRSVVESIASPAVPNKEVTPPSAENANSSTLYRNTDRQRKKSKMTDEEILEKLRSIVSVGDPKKKYTRFEKIGQGASGTVYTALDIATGQEVAIKQMNLQQQPKKELIINEILVMRENKNPNIVNYLDSYLVGDELWVVMEYLAGGSLTDVVTETCMDEGQIAAVCRECLQALDFLHSNQVIHRDIKSDNILLGMDGSVKLTDFGFCAQITPEQSKRSTMVGTPYWMAPEVVTRKAYGPKVDIWSLGIMAIEMVEGEPPYLNENPLRALYLIATNGTPELQNPERLSAVFRDFLNRCLEMDVDRRGSAKELLQHPFLKLAKPLSSLTPLIIAAKEAIKNSSR
- phosphorylation of the pseudo-substrate in an in-vitro kinase assay [1]: Only extracts from cells transfected with PAK2 and PAK3 were able to effectively phosphorylate the pseudo-substrate

B3: PAK2 AID: auto-inhibitory domain of PAK2, residues 82-146, expressed from pcDNA3; dominant negative fragment (protein)
chain: HTIHVGFDAVTGEFTGMPEQWARLLQTSNITKLEQKKNPQAVLDVLKFYDSNTVKQKYLSFTPPE
- decrease in the ratio of hyper-phosphorylated to hypo-phosphorylated merlin [2]: 3-4 fold

B4: PAK2 wild-type (transfected) (protein)
chain: MSDNGELEDKPPAPPVRMSSTIFSTGGKDPLSANHSLKPLPSVPEEKKPRHKIISIFSGTEKGSKKKEKERPEISPPSDFEHTIHVGFDAVTGEFTGMPEQWARLLQTSNITKLEQKKNPQAVLDVLKFYDSNTVKQKYLSFTPPEKDGFPSGTPALNAKGTEAPAVVTEEEDDDEETAPPVIAPRPDHTKSIYTRSVIDPVPAPVGDSHVDGAAKSLDKQKKKTKMTDEEIMEKLRTIVSIGDPKKKYTRYEKIGQGASGTVFTATDVALGQEVAIKQINLQKQPKKELIINEILVMKELKNPNIVNFLDSYLVGDELFVVMEYLAGGSLTDVVTETCMDEAQIAAVCRECLQALEFLHANQVIHRDIKSDNVLLGMEGSVKLTDFGFCAQITPEQSKRSTMVGTPYWMAPEVVTRKAYGPKVDIWSLGIMAIEMVEGEPPYLNENPLRALYLIATNGTPELQNPEKLSPIFRDFLNRCLEMDVEKRGSAKELLQHPFLKLAKPLSSLTPLIMAAKEAMKSNR
- phosphorylation of the pseudo-substrate in an in-vitro kinase assay [1]: Only extracts from cells transfected with PAK2 and PAK3 were able to effectively phosphorylate the pseudo-substrate

B5: PAK2 of NIH3T3 cell extracts (endogenous) (protein)
chain: SDNGELEDKPPAPPVRMSSTIFSTGGKDPLSANHSLKPLPSVPEEKKPRNKIISIFSGTEKGSKKKEKERPEISPPSDFEHTIHVGFDAVTGEFTGMPEQWARLLQTSNITKLEQKKNPQAVLDVLKFYDSNTVKQKYLSFTPPEKDGFPSGTPALNTKGSETSAVVTEEDDDDEDAAPPVIAPRPDHTKSIYTRSVIDPIPAPVGDSNVDSGAKSSDKQKKKAKMTDEEIMEKLRTIVSIGDPKKKYTRYEKIGQGASGTVFTATDVALGQEVAIKQINLQKQPKKELIINEILVMKELKNPNIVNFLDSYLVGDELFVVMEYLAGGSLTDVVTETCMDEAQIAAVCRECLQALEFLHANQVIHRDIKSDNVLLGMEGSVKLTDFGFCAQITPEQSKRSTMVGTPYWMAPEVVTRKAYGPKVDIWSLGIMAIEMVEGEPPYLNENPLRALYLIATNGTPELQNPEKLSPIFRDFLNRCLEMDVEKRGSAKELLQHPFLKLAKPLSSLTPLILAAKEAMKSNR
- kinase activity on the GST-merlin substrate after immunodepletion of PAK2 [1]: extracts immunodepleted for PAK2 (+PAK2 Ab) had a 2-3 fold reduction in kinase activity

B6: endogenous PAK1 of RT4 cells (protein)
chain: SNNGLDVQDKPPAPPMRNTSTMIGAGSKDPGTLNHGSKPLPPNPEEKKKKDRFYRSILAGDKTNKKKEKERPEISLPSDFEHTIHVGFDAVTGEFTGMPEQWARLLQTSNITKSEQKKNPQAVLDVLEFYNSKKTSNSQKYMSFTDKSAEDYNSSNTLNVKTVSETPAVPPVSEDEDDDDDATPPPVIAPRPEHTKSVYTRSVIEPLPVTPTRDVATSPISPTENNTTPPDALTRNTEKQKKKPKMSDEEILEKLRSIVSVGDPKKKYTRFEKIGQGASGTVYTAMDVATGQEVAIKQMNLQQQPKKELIINEILVMRENKNPNIVNYLDSYLVGDELWVVMEYLAGGSLTDVVTETCMDEGQIAAVCRECLQALEFLHSNQVIHRDIKSDNILLGMDGSVKLTDFGFCAQITPEQSKRSTMVGTPYWMAPEVVTRKAYGPKVDIWSLGIMAIEMIEGEPPYLNENPLRALYLIATNGTPELQNPEKLSAIFRDFLNRCLEMDVEKRGSAKELLQHQFLKIAKPLSSLTPLIAAAKEATKNNH
- phosphorylation status (activation) of PAK1 by 2-dimensional protein analysis [3]: The basal levels of activated PAK1 were reduced under conditions of high merlin expression compared to conditions of low merlin expression
